Values quoted from earlier work in PMC3439503.

Target: dystrophin N-ABD N-ABD (Homo sapiens) (UniProt P11532)

In the case of “dystrophin N-ABD N-ABD (from UniProt P11532)”, the Kd is given as 4 µM.
